In patent US20250026787A1, “PEPTIDES AND METHODS FOR REDUCING SKIN PIGMENTATION” (Glo Pharma, Inc., priority 2021, published 2025) one finds IC50 data, which are given here for two molecules.

This assay has as its target Human recombinant melanocortin MC1 receptor (human) (UniProt Q01726). Description: radioligand competition, displacement of [125I]NDP-alpha-MSH from human MC1R (CHO-K1), Example 7.

Square brackets hold non-standard residues; d marks the D form. Ends that are not written are not given here.

Human recombinant melanocortin MC1 receptor (human), sequence (Q01726 whole entry): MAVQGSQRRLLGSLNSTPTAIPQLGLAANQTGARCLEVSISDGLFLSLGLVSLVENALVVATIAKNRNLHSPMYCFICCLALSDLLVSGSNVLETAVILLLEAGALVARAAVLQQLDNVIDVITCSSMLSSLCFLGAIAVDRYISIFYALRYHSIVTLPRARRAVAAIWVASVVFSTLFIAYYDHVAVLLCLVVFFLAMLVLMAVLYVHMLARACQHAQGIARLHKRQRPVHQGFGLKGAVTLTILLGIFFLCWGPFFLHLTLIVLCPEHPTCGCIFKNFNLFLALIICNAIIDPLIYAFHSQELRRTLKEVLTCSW

B1: SEQ ID NO: 35 (peptide)
peptide: MV[dF][dR][dW]FKPV-NH2
modifications: N-terminus assumed
SMILES: CSCC[C@H](N)C(=O)N[C@H](C(=O)N[C@H](Cc1ccccc1)C(=O)N[C@H](CCCNC(=N)N)C(=O)N[C@H](Cc1c[nH]c2ccccc12)C(=O)N[C@@H](Cc1ccccc1)C(=O)N[C@@H](CCCCN)C(=O)N1CCC[C@H]1C(=O)N[C@H](C(N)=O)C(C)C)C(C)C
Take B1: the IC50 was over 500 nM.

B2: SEQ ID NO: 40 (peptide)
peptide: A[dL][dF]R[dW]FKPV-NH2
modifications: N-terminus assumed
SMILES: CC(C)C[C@@H](NC(=O)[C@H](C)N)C(=O)N[C@H](Cc1ccccc1)C(=O)N[C@@H](CCCNC(=N)N)C(=O)N[C@H](Cc1c[nH]c2ccccc12)C(=O)N[C@@H](Cc1ccccc1)C(=O)N[C@@H](CCCCN)C(=O)N1CCC[C@H]1C(=O)N[C@H](C(N)=O)C(C)C
Consider B2, for which the half-maximal inhibitory concentration (IC50) was over 500 nM.
